# Changes are numbered by the printed parent chain. Names may count otherwise. Where two headings read alike, the source gives them in different places.
# B1: anti-PD-1 antibody 1 heavy chain K63C-R4-7 (antibody, human IgG4 S228P, kappa, V domains shown)
# VH: QVQLVQSGVEVKKPGASVKVSCKASGYTFTNYYMYWVRQAPGQGLEWMGGINPSNGGTNFNECFKNRVTLTTDSSTTTAYMELKSLQFDDTAVYYCARRDYRFDMGFDYWGQGTTVTVSS
# VL: EIVLTQSPATLSLSPGERATLSCRASKGVSTSGYSYLHWYQQKPGQAPRLLIYLASYLESGVPARFSGSGSGTDFTLTISSLEPEDFAVYYCQHSRDLPLTFGGGTKVEIKR
# modifications: R4-7 on Cys 63
# B2: anti-PD-1 antibody 1 light chain G28C-R4-5 (antibody, human IgG4 S228P, kappa, V domains shown)
# VH: B1 VH with C63K
# VL: B1 VL with G28C
# modifications: R4-5 on Cys 28
# B3: anti-PD-1 antibody 1 heavy chain S54C-R4-1 (antibody, human IgG4 S228P, kappa, V domains shown)
# VH: B1 VH with S54C, C63K
# VL: B1 VL
# modifications: R4-1 on Cys 54
# B4: anti-PD-1 antibody 1 light chain T31C-R4-1 (antibody, human IgG4 S228P, kappa, V domains shown)
# VH: B1 VH with C63K
# VL: B1 VL with T31C
# modifications: R4-1 on Cys 31
# B5: anti-PD-1 antibody 1 heavy chain T30C-R4-1 (antibody, human IgG4 S228P, kappa, V domains shown)
# VH: B1 VH with T30C, C63K
# VL: B1 VL
# modifications: R4-1 on Cys 30
# B6: anti-PD-1 antibody 1 light chain S60C-R4-1 (antibody, human IgG4 S228P, kappa, V domains shown)
# VH: B1 VH with C63K
# VL: B1 VL with S60C
# modifications: R4-1 on Cys 60
# B7: anti-PD-1 antibody 1 light chain S35C-R4-1 (antibody, human IgG4 S228P, kappa, V domains shown)
# VH: B1 VH with C63K
# VL: B1 VL with S35C
# modifications: R4-1 on Cys 35
# B8: anti-PD-1 antibody 1 heavy chain T58C-R4-1 (antibody, human IgG4 S228P, kappa, V domains shown)
# VH: B1 VH with T58C, C63K
# VL: B1 VL
# modifications: R4-1 on Cys 58
# B9: Pem-se007 (Pembrolizumab light chain Gly28Cys) (antibody, human IgG4 S228P, kappa, V domains shown)
# VH: B1 VH with C63K
# VL: B1 VL with G28C
# modifications: Cys at 28 carries the group named in the row
# B10: anti-PD-1 antibody 1 light chain S30C-R4-1 (antibody, human IgG4 S228P, kappa, V domains shown)
# VH: B1 VH with C63K
# VL: B1 VL with S30C
# modifications: R4-1 on Cys 30
# B11: anti-CTLA-4 antibody heavy chain D54C (antibody, human IgG1, kappa, V domains shown)
# VH: QVQLVESGGGVVQPGRSLRLSCAASGFTFSSYTMHWVRQAPGKGLEWVTFISYCGNNKYYADSVKGRFTISRDNSKNTLYLQMNSLRAEDTAIYYCARTGWLGPFDYWGQGTLVTVSS
# VL: not shown
# B12: anti-CTLA-4 antibody heavy chain K58C-R4-7 (antibody, human IgG1, kappa, V domains shown)
# VH: B11 VH with C54D, K58C
# VL: not shown
# modifications: R4-7 on Cys 58
# B13: Ipi-se009 (Ipilimumab light chain Ser54Cys, Kabat L53) (antibody, human IgG1, kappa, V domains shown)
# VH: B11 VH with C54D
# VL: not shown
# modifications: Cys at 54 (Kabat L53) carries the group named in the row
# B14: anti-CTLA-4 antibody heavy chain I51C (antibody, human IgG1, kappa, V domains shown)
# VH: B11 VH with I51C, C54D
# VL: not shown
# B15: anti-CTLA-4 antibody heavy chain D62C (antibody, human IgG1, kappa, V domains shown)
# VH: B11 VH with C54D, D62C
# VL: not shown
# B16: anti-CTLA-4 antibody heavy chain D106C-R4-3 (antibody, human IgG1, kappa, V domains shown)
# VH: B11 VH with C54D, D106C
# VL: not shown
# modifications: R4-3 on Cys 106
# B17: anti-CTLA-4 antibody light chain T98C (antibody, human IgG1, kappa, V domains shown)
# VH: B11 VH with C54D
# VL: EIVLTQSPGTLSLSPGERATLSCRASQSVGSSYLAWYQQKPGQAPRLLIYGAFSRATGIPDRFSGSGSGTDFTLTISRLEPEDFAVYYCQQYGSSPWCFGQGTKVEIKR
# B18: anti-CTLA-4 antibody heavy chain S30C-R4-1 (antibody, human IgG1, kappa, V domains shown)
# VH: B11 VH with S30C, C54D
# VL: not shown
# modifications: R4-1 on Cys 30
# B19: anti-CTLA-4 antibody heavy chain S31C-R4-1 (antibody, human IgG1, kappa, V domains shown)
# VH: B11 VH with S31C, C54D
# VL: not shown
# modifications: R4-1 on Cys 31
# B20: anti-CTLA-4 antibody light chain A35C (antibody, human IgG1, kappa, V domains shown)
# VH: B11 VH with C54D
# VL: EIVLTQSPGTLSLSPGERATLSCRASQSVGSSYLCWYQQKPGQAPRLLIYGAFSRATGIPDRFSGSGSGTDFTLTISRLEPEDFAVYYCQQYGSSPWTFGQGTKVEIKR
# B21: anti-CTLA-4 antibody light chain Y92C (antibody, human IgG1, kappa, V domains shown)
# VH: B11 VH with C54D
# VL: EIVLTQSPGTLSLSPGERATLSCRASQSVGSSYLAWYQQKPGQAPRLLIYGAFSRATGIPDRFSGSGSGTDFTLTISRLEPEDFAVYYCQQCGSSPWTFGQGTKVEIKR
# B22: anti-CTLA-4 antibody heavy chain Y107C (antibody, human IgG1, kappa, V domains shown)
# VH: B11 VH with C54D, Y107C
# VL: not shown
# B23: anti-CTLA-4 antibody light chain Y33C (antibody, human IgG1, kappa, V domains shown)
# VH: B11 VH with C54D
# VL: not shown
# B24: anti-CTLA-4 antibody light chain A56C (antibody, human IgG1, kappa, V domains shown)
# VH: B11 VH with C54D
# VL: not shown
# B25: anti-CTLA-4 antibody heavy chain Y59C-R4-4 (antibody, human IgG1, kappa, V domains shown)
# VH: B11 VH with C54D, Y59C
# VL: not shown
# modifications: R4-4 on Cys 59
# B26: anti-CTLA-4 antibody heavy chain K65C-R4-7 (antibody, human IgG1, kappa, V domains shown)
# VH: B11 VH with C54D, K65C
# VL: not shown
# modifications: R4-7 on Cys 65
# B27: anti-CTLA-4 antibody light chain L34C (antibody, human IgG1, kappa, V domains shown)
# VH: B11 VH with C54D
# VL: not shown
# B28: anti-CTLA-4 antibody light chain A52C (antibody, human IgG1, kappa, V domains shown)
# VH: B11 VH with C54D
# VL: not shown
# B29: anti-CTLA-4 antibody heavy chain Y32C (antibody, human IgG1, kappa, V domains shown)
# VH: B11 VH with Y32C, C54D
# VL: not shown
# B30: anti-PD-1 antibody 2 heavy chain S32C-R4-1 (antibody, human IgG4 S228P, kappa, V domains shown)
# VH: QVQLVESGGGVVQPGRSLRLDCKASGITFSNCGMHWVRQAPGKGLEWVAVIWYDGSKRYYADSVKGRFTISRDNSKNTLFLQMNSLRAEDTAVYYCATNDDYWGQGTLVTVSS
# VL: EIVLTQSPATLSLSPGERATLSCRASQSVSSYLAWYQQKPGQAPRLLIYDASNRATGIPARFSGSGSGTDFTLTISSLEPEDFAVYYCQQSSNWPRTFGQGTKVEIKR
# modifications: R4-1 on Cys 32
# B31: anti-PD-1 antibody 2 heavy chain Y53C-R4-4 (antibody, human IgG4 S228P, kappa, V domains shown)
# VH: B30 VH with C32S, Y53C
# VL: B30 VL
# modifications: R4-4 on Cys 53
# B32: Niv-se007 (Nivolumab light chain Ser91Cys) (antibody, human IgG4 S228P, kappa, V domains shown)
# VH: B30 VH with C32S
# VL: B30 VL with S91C
# modifications: Cys at 91 carries the group named in the row
# B33: anti-CD28 antibody light chain G99C-R4-1 (antibody, human IgG4, kappa, V domains shown)
# VH: QVQLVQSGAEVKKPGASVKVSCKASGYTFTSYYIHWVRQAPGQGLEWIGCIYPGNVNTNYNEKFKDRATLTVDTSISTAYMELSRLRSDDTAVYFCTRSHYGLDWNFDVWGQGTTVTVSS
# VL: not shown
# modifications: R4-1 on Cys 99
# B34: anti-CD28 antibody light chain T93C-R4-1 (antibody, human IgG4, kappa, V domains shown)
# VH: B33 VH
# VL: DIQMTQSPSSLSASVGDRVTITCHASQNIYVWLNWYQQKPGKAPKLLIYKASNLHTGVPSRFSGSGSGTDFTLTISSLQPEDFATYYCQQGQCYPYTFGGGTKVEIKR
# modifications: R4-1 on Cys 93
# Tests used:
# PD-1 [1] = biological target: T1, PD-1 (UniProt Q15116 25-167, limits assumed); assay: ELISA, conjugate vs WT antibody
# PD-1 [2] = biological target: T1, PD-1; assay: ELISA, conjugate vs WT antibody; remark: listed apart in the source
# [3] = biological target: T2, human Fc tagged PD-1 protein (Sino Biological) (human, UniProt Q15116 25-167); assay: ELISA, EC50 fold change; S47 on the Cys
# T2 construct: bought; also called Fc tagged human PD-1 protein
# CTLA-4 [4] = biological target: T3, CTLA-4 (UniProt P16410 36-162, limits assumed); assay: ELISA, OD mutant/OD WT; B=70-90%
# CTLA-4 [5] = biological target: T3, CTLA-4; assay: ELISA, conjugate vs WT antibody
# CTLA-4 [6] = biological target: T4, CTLA-4 (UniProt P16410 36-162, limits assumed); assay: ELISA; S47 on the Cys
# T4 construct: also called CTLA-4 protein
# [7] = biological target: T5, human CTLA-4 Fc fusion protein (R&D systems) (human, UniProt P16410 37-162); assay: receptor blocking ELISA against biotinylated B7-1 or B7-2; TMEAbody (S47 conjugate)
# T5 construct: bought
# [8] = biological target: T5, human CTLA-4 Fc fusion protein (R&D …); assay: ELISA, fold change of EC50; S47 on the Cys
# CTLA-4 [9] = biological target: T4, CTLA-4; assay: ELISA; R4-1 on the Cys
# CTLA-4 [10] = biological target: T4, CTLA-4; assay: ELISA; R4-1 on the Cys; remark: listed apart in the source
# CTLA-4 [11] = biological target: T3, CTLA-4; assay: ELISA, OD mutant/OD WT; B=70-90%; remark: listed apart in the source
# CTLA-4 [12] = biological target: T3, CTLA-4; assay: ELISA, OD mutant/OD WT; ↓=less than 70%
# PD-1 [13] = biological target: T1, PD-1; assay: ELISA, conjugate vs WT antibody; remark: listed apart in the source
# PD-1 [14] = biological target: T6, PD-1 (UniProt Q15116 25-167, limits assumed); assay: ELISA, EC50 fold change; S47 on the Cys
# T6 construct: also called PD-1 antigen
# CD28 = CD28 (UniProt P10747 19-152, limits assumed); assay: ELISA, conjugate vs WT antibody
# T5 sequence (P16410 37-162 limits assumed): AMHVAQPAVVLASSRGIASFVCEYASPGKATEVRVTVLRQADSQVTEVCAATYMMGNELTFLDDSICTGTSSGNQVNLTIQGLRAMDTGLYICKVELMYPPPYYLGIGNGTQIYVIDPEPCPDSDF
# T2 sequence (Q15116 25-167 limits assumed): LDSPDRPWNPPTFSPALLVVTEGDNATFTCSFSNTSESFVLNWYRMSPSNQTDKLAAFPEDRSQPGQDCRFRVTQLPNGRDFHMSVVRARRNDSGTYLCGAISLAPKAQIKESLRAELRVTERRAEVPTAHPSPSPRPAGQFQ
binder,measurement,setting,value
B1,binding activity (% of WT),PD-1 [1],95.2%
B2,binding activity (% of WT),PD-1 [2],108%
B3,binding activity (% of WT),PD-1 [1],104%
B4,binding activity (% of WT),PD-1 [2],84.4%
B5,binding activity (% of WT),PD-1 [1],91.2%
B6,binding activity (% of WT),PD-1 [2],89.4%
B7,binding activity (% of WT),PD-1 [2],88.3%
B8,binding activity (% of WT),PD-1 [1],93.9%
B9,Blocking efficiency of S47,[3],8 fold
B10,binding activity (% of WT),PD-1 [2],86.9%
B11,binding activity (OD after mutation/OD wild type),CTLA-4 [4],70 to 90%
B12,binding activity (% of WT),CTLA-4 [5],87.6%
B13,Activity after S47 (40 kD) blocking,CTLA-4 [6],5%
same,"Blocking efficiency (RBA), fold change of IC50",[7],18 fold
same,Blocking efficiency after conjugation with S47,[8],22 fold
same,Binding activity,CTLA-4 [9],98%
same,Binding activity,CTLA-4 [10],98%
B14,binding activity (OD after mutation/OD wild type),CTLA-4 [4],70 to 90%
B15,binding activity (OD after mutation/OD wild type),CTLA-4 [4],70 to 90%
B16,binding activity (% of WT),CTLA-4 [5],87.6%
B17,binding activity (OD after mutation/OD wild type),CTLA-4 [11],70 to 90%
B18,binding activity (% of WT),CTLA-4 [5],93.4%
B19,binding activity (% of WT),CTLA-4 [5],110%
B20,binding activity (OD after mutation/OD wild type),CTLA-4 [11],70 to 90%
B21,binding activity vs wild type,CTLA-4 [12],< 70%
B22,binding activity (OD after mutation/OD wild type),CTLA-4 [4],70 to 90%
B23,binding activity vs wild type,CTLA-4 [12],< 70%
B24,binding activity (OD after mutation/OD wild type),CTLA-4 [11],70 to 90%
B25,binding activity (% of WT),CTLA-4 [5],89.1%
B26,binding activity (% of WT),CTLA-4 [5],96.2%
B27,binding activity (OD after mutation/OD wild type),CTLA-4 [11],70 to 90%
B28,binding activity vs wild type,CTLA-4 [12],< 70%
B29,binding activity (OD after mutation/OD wild type),CTLA-4 [4],70 to 90%
B30,binding activity (% of WT),PD-1 [13],86.8%
B31,binding activity (% of WT),PD-1 [13],91.6%
B32,Blocking efficiency of S47,PD-1 [14],25 fold
B33,binding activity (% of WT),CD28,96.6%
B34,binding activity (% of WT),CD28,87%
